Where a name gives a salt, the structure may show the parent alone. *1 amine or outer side, *2 acyl side, *3 side chain or, on linkers, in order; H or OH if unused. Where a SMILES comes first, the peptide text is derived from it. Bridges are numbered along the chain shown (N, C = ends). Where no end group is shown, it is not given here. [ ]: non-standard residue; d: D form. The star is where a group is joined. X2 = CCN(CCN([C@@H](Cc1ccc(O)cc1)C(=O)[*:2])[*:1])c1ccc(N=Nc2ccc([N+](=O)[O-])cc2)cc1; X1 = NC(=O)CCCC(=O)*

Holding throughout (type): biochemical, bovine
Assay [1] addresses T1, Trypsin (Bos taurus, UniProt P00760).
T1 construct: Trypsin (from bovine pancrease, Type I, ethanol precipitate); purchased Sigma Type I (catalogue number not given); host or cells: bovine pancreas
T1 sequence (P00760 24-246): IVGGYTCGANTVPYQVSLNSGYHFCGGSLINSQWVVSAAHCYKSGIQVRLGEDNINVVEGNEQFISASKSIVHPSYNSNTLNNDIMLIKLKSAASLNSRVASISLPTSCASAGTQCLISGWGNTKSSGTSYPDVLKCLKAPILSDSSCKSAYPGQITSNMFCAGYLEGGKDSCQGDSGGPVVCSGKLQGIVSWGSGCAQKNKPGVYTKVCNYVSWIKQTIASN
As to the kind of experiment: Trypsin assay (L-BAPNA hydrolysis, absorbance at 410 nm). Particulars: 5% DMSO. Here is the method:
(§1) Reagents and solvents were obtained from commercial suppliers and used as received. Trypsin (from bovine pancrease, Type I, ethanol precipitate) and N-α-benzoyl-L-arginine-p-nitroanilide, hydrochloride were obtained from Sigma®. All moisture- or air-sensitive reactions were conducted under nitrogen in dried solvents. Unless otherwise indicated, chromatography was performed on silica gel with the indicated solvent as eluant. […]
All assays were performed at 37° C. on a Kontron Uvikon 860 UV-Vis spectrophotmeter. The forward reaction rate was measured by monitoring the absorbance change at 410 nm of the para-nitroanilide produced ( e=8800 M^-1 cm^-1 at 410 nm) at 30 sec intervals for 15 min. The concentrations of inhibitor solutions were determined spectrophotometrically from Disperse Red 1's extinction coefficient of 15,562 M^-1 cm^-1 at 490 nm. […] Inhibition constants (Ki 's) were determined from the slope of the V0 /v vs. [inhibitor] plots where the slope=1/Ki (1 +[L-BAPNA]/Km) and Km =2.0 +/-0.3 mM, V0 =rate in the absence of inhibitor and v=rate in the presence of inhibitor. […]

Assay [2] concerns the target T1, Trypsin. As to the kind of experiment: Dye retention on resin after trypsin treatment and cleavage of ester X. Particulars: trypsin in 30:30:40 DMF/ethanol/pH 6.5 Tris buffer, then 1:1 methanol/1M sodium hydroxide, filtered and washed. An excerpt:
The compound of formula (3) is soluble; the compounds of formula (4) and (5) are not, as a consequence of their attachment to a resin. Therefore, whether or not cyclization has taken place, a solid insoluble product will remain, which can be filtered off and purified by washing. However, if cyclization has taken place and a product of formula (5) has been formed, the dye will still be attached to the resin, which consequently is visibly colored, or is visible under UV or by fluorescence, depending upon the dye used. If cyclization has not taken place and products of formula (3) and (4) have been formed, the dye will be seen in the filtrate and the insoluble resin material will be colorless.
The specific analogs that afford positive results in this screen may be then identified by conventional analysis of the material that is isolated from the resin beads by cleaving the bond linking the material to the resin beads. […]

For assay [3], the target named is T1, Trypsin. As to the kind of experiment: Trypsin-catalyzed cyclization of acyclic compound, products determined. The conditions noted are these: 30:30:40 DMF/ethanol/pH 6.5 Tris buffer. As for the experimental part: The structure was determined conventionally.
The compound of Formula III SEQ ID NO: 1 where L is a resin linker was treated in the same manner, and the resin component removed. […] Therefore the material on the resin is accessible to the enzyme. A control experiment without the enzyme gave only starting material.
as §1

As to `NC(N)=NCCCC(NC(=O)c1ccccc1)C(=O)Nc1ccc([N+](=O)[O-])cc1` [L-BAPNA, N-α-benzoyl-L-arginine-p-nitroanilide, hydrochloride, reference compound], the Km (usually the concentration of substrate that gives half-maximal velocity) on Trypsin [1] (100 mM TRIS/10 mM CaCl2 (pH=8.0), Lineweaver-Burke and non-linear regression of initial rates) stood at 2000 ± 300 µM.

`CCN(CCN1C(=O)[C@H](CC(C)C)NC(=O)[C@H](CO)NC(=O)[C@H](CCCNC(=N)N)NC(=O)[C@@H](NC(=O)CCCC(N)=O)[C@@H](C)OC(=O)[C@H](C(C)C)NC(=O)[C@@H]1Cc1ccc(O)cc1)c1ccc(N=Nc2ccc([N+](=O)[O-])cc2)cc1` [macrocyclic analog] (X1-TRSL[X2]V; ester 1-C): the Ki (usually a measure of affinity in units of concentration, obtained from inhibition or displacement) on Trypsin [1] (37° C., 100 mM TRIS/10 mM CaCl2 pH=8.0, substrate L-BAPNA, average value of 3 separate determinations, read-out: inhibition constant Ki) worked out at 230 nM.

For the compound “O-{N-[L-Serinyl-L-leucyl]-N-[(4-nitrophenylazo)-2-aminophenylethyl-N-ethyl]-L-tyrosinyl-L-valinyl}-N-(glutaryl-photolinker-Tentagel-amide)-L-threonyl-L-arginine, Methyl Ester (SLYVTR-OMe; also: Tyr3 N-substituted with (4-nitrophenylazo)-2-aminophenylethyl-N-ethyl group, Val4-Thr5 ester bond via Thr side-chain OH, backbone changed)”, the “retention of dye colour on resin” value with Trypsin [2] is “The color was retained on the resin”. In addition, the cyclization by trypsin result with Trypsin [3] is “The same products A and B were obtained”.

As for “O-{N-[L-serinyl-L-leucyl]-N-[(4-nitrophenylazo)-2-aminophenylethyl-N-ethyl]-L-tyrosinyl-L-valinyl}-N-(glutaryl carboxamide)-L-threonyl-L-arginine, Methyl Ester (SLYVTR-OMe; also: depsipeptide: Val ester-linked to Thr side-chain O, Tyr N-substituted with (4-nitrophenylazo)-2-aminophenylethyl-N-ethyl azo dye, Thr N-acylated with glutaryl carboxamide) [Ser--Leu--N(dye)--Tyr--Val--O--Thr(NH--C(O)--(CH2)3 CONH--L)--Arg--OR, R methyl, L hydrogen]”, the cyclization by trypsin entry with Trypsin [3] is given as “readily cyclized”.

The record behind these values is patent US6190920A, “Method for detecting enzyme catalyzed cyclization” (The Regents of the University of California, priority 1997, dated 2001).
